For this experiment, the target named is T1, HLA-B*08:01 (human).
T1 construct: MHC monomer first loaded with a UV-sensitive peptide that is cleaved by UV light and exchanged for the test peptide
The experiment in a line: UV peptide exchange ELISA. From the text:
Candidate peptides for T cell based therapies according to the present invention were further tested for their MHC binding capacity (affinity). The individual peptide-MHC complexes were produced by UV-ligand exchange, where a UV-sensitive peptide is cleaved upon UV-irradiation and exchanged with the peptide of interest as analyzed. Only peptide candidates that can effectively bind and stabilize the peptide-receptive MHC molecules prevent dissociation of the MHC complexes. To determine the yield of the exchange reaction, an ELISA was performed based on the detection of the light chain (β2m) of stabilized MHC complexes. The assay was performed as generally described in Rodenko et al. (Rodenko et al., 2006).
96 well MAXISorp plates (NUNC) were coated over night with 2 ug/ml streptavidin in PBS at room temperature, washed 4× and blocked for 1 h at 37° C. in 2% BSA containing blocking buffer. Refolded HLA-A*02:01/MLA-001 monomers served as standards, covering the range of 15-500 ng/ml. Peptide-MHC monomers of the UV-exchange reaction were diluted 100-fold in blocking buffer. Samples were incubated for 1 h at 37° C., washed four times, incubated with 2 ug/ml HRP conjugated anti-β2m for 1 h at 37° C., washed again and detected with TMB solution that is stopped with […]. Absorption was measured at 450 nm. Candidate peptides that show a high exchange yield (preferably higher than 50%, most preferred higher than 75%) are generally preferred for a generation and production of antibodies or fragments thereof, and/or T cell receptors or fragments thereof, as they show sufficient avidity to the MHC molecules and prevent dissociation of the MHC complexes.
(An ELISA detects its analyte on a solid surface through an enzyme-linked reagent.)

B1: RSYYHPTNL (SEQ ID NO: 108) (peptide)
peptide: RSYYHPTNL
B1 displayed a peptide exchange yield of 20 to 50%.

B2: GAGLRITAPL (SEQ ID NO: 111) (peptide)
peptide: GAGLRITAPL
The molecule B2 had a peptide exchange yield of 20 to 50%.

B3: FTQNPRVQL (SEQ ID NO: 116) (peptide)
peptide: FTQNPRVQL
B3 gave a peptide exchange yield of 20 to 50%.

B4: LPKGLKDWQA (SEQ ID NO: 107) (peptide)
peptide: LPKGLKDWQA
The molecule B4 yielded a peptide exchange yield of 20 to 50%.

B5: APLKMLALV (SEQ ID NO: 105) (peptide)
peptide: APLKMLALV
Molecule B5 yielded a peptide exchange yield of 20 to 50%.

B6: HLHLLETSI (SEQ ID NO: 106) (peptide)
peptide: HLHLLETSI
On to B6, for which the peptide exchange yield was in the range of 20 to 50%.

B7: MGKFKQCF (SEQ ID NO: 10) (peptide)
peptide: MGKFKQCF
Take B7: the peptide exchange yield lay in the range of 50 to 75%.

B8: DFYLRSSAF (SEQ ID NO: 12) (peptide)
peptide: DFYLRSSAF
In turn, B8 showed a peptide exchange yield of 50 to 75%.

B9: DAMTKHTL (SEQ ID NO: 110) (peptide)
peptide: DAMTKHTL
For B9, the peptide exchange yield is 50 to 75%.

B10: IPASHPVLTL (SEQ ID NO: 109) (peptide)
peptide: IPASHPVLTL
In turn, B10 displayed a peptide exchange yield of 20 to 50%.

B11: FAFGEPREL (SEQ ID NO: 104) (peptide)
peptide: FAFGEPREL
As to B11, the peptide exchange yield fell in the range of 20 to 50%.

B12: IMKKIRESY (SEQ ID NO: 102) (peptide)
peptide: IMKKIRESY
In turn, B12 yielded a peptide exchange yield of 50 to 75%.

B13: PVKPKFYL (SEQ ID NO: 114) (peptide)
peptide: PVKPKFYL
B13 registered a peptide exchange yield of 20 to 50%.

B14: IANLRVKNI (SEQ ID NO: 103) (peptide)
peptide: IANLRVKNI
Consider B14, for which the peptide exchange yield was in the range of 50 to 75%.

B15: AQRSEMVTL (SEQ ID NO: 120) (peptide)
peptide: AQRSEMVTL
B15 had a peptide exchange yield of 20 to 50%.

B16: MAPLKMLAL (SEQ ID NO: 11) (peptide)
peptide: MAPLKMLAL
In turn, B16 showed a peptide exchange yield of 50 to 75%.

B17: NALDPLSAL (SEQ ID NO: 112) (peptide)
peptide: NALDPLSAL
For B17, the peptide exchange yield is 20 to 50%.

B18: MAFVKHLL (SEQ ID NO: 118) (peptide)
peptide: MAFVKHLL
On to B18, for which the peptide exchange yield was in the range of 50 to 75%.

B19: MRILKRFLAC (SEQ ID NO: 115) (peptide)
peptide: MRILKRFLAC
As to B19, the peptide exchange yield fell in the range of 20 to 50%.

B20: HSWTRTSV (SEQ ID NO: 124) (peptide)
peptide: HSWTRTSV
B20 displayed a peptide exchange yield of 50 to 75%.

B21: ESSAQPTAL (SEQ ID NO: 122) (peptide)
peptide: ESSAQPTAL
As to B21, the peptide exchange yield was 20 to 50%.

B22: VGPNGFKSL (SEQ ID NO: 117) (peptide)
peptide: VGPNGFKSL
B22 yielded a peptide exchange yield of 20 to 50%.

B23: MEKGLASL (SEQ ID NO: 113) (peptide)
peptide: MEKGLASL
The molecule B23 had a peptide exchange yield of 20 to 50%.

B24: YSQLSISL (SEQ ID NO: 121) (peptide)
peptide: YSQLSISL
In turn, B24 yielded a peptide exchange yield of 20 to 50%.

B25: SLLPFTLSF (SEQ ID NO: 123) (peptide)
peptide: SLLPFTLSF
B25 had a peptide exchange yield of 20 to 50%.

B26: ALKLKVAEL (SEQ ID NO: 1) (peptide)
peptide: ALKLKVAEL
Take B26: the peptide exchange yield lay within 20 to 50%.

B27: FQRVSSVSF (SEQ ID NO: 119) (peptide)
peptide: FQRVSSVSF
Take B27: the peptide exchange yield lay in the range of 50 to 75%.

The record behind these values is patent US20250145684A1 (IMMATICS BIOTECHNOLOGIES, published 2025).
